Assay [1] addresses mCMKLR1-HA on L1.2 transfectants (mouse) (UniProt P97468). Kind of assay: radioligand binding.
The target in assay [2] is huCCRL2-HA on L1.2 transfectants (human). The assay is described as follows: radioligand binding.
Assay [3] deals with mCCRL2 on freshly isolated mouse peritoneal mast cells (mouse (endogenous in peritoneal mast cells)) (UniProt O35457). The assay is described as follows: flow cytometry on cells. In general terms: Flow cytometry measures light scatter and fluorescence of single cells or particles in a stream.
Assay [4] deals with huCCRL2-HA on L1.2 transfectants (human). Kind of assay: flow cytometry on cells.
The target in assay [5] is T1, mCCRL2-HA on L1.2 transfectants (mouse, UniProt O35457 1-360).
T1 sequence (looked up): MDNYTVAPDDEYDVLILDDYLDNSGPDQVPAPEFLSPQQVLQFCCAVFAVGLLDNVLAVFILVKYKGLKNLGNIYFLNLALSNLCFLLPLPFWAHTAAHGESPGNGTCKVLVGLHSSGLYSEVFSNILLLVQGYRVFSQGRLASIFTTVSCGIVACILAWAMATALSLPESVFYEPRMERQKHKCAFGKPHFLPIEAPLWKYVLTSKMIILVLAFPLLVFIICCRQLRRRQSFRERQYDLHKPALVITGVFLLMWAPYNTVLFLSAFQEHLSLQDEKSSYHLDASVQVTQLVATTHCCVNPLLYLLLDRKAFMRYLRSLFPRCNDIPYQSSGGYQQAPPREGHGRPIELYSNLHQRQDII
Kind of assay: flow cytometry on cells.

In assay [6] the target is T2, mCMKLR1-HA on L1.2 transfectants (mouse, UniProt P97468 1-371).
T2 sequence (looked up): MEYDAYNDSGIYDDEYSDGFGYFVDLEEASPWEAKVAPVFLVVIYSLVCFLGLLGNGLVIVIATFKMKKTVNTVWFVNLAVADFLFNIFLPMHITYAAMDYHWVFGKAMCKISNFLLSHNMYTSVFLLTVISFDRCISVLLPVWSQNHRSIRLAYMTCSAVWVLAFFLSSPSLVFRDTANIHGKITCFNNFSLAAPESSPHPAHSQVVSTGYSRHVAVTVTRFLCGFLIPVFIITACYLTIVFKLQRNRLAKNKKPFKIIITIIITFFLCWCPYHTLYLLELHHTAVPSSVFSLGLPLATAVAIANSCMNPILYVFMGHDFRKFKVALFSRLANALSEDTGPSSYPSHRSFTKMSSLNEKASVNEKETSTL
Kind of assay: radioligand binding.

The target in assay [7] is T1, mCCRL2-HA on L1.2 transfectants. The assay is described as follows: radioligand binding.

Here are results for five molecules from publication PMC2556791 (The Journal of Experimental Medicine, 2008).

One may read the EC50 as the midpoint of the concentration-response curve. Read a low EC50 as a more potent agent. The Kd is the concentration at which binding is half-saturated. A low value points to a tighter complex.

As to “C-terminal His8-tagged serum form human chemerin (NH2-ADPELTE……-COOH) (from UniProt Q99969 21-155) (ligand)”, the EC50 in assay [1] is 26.3 nM.
On to “chemerin (unlabeled; form not specified) (from UniProt Q99969 21-157) (ligand)”, for which the values for the EC50 in assay [2], in assay [1] and in assay [3] were 0.2 nM, 3.1 nM and 21 nM, respectively.

B1: untagged serum form human chemerin (NH2-ADPELTE…FAPH-COOH) (ligand)
chain: ADPELTEAQRRGLQVALEEFHKHPPVQWAFQETSVESAVDTPFPAGIFVRLEFKLQQTSCRKRDWKKPECKVRPNGRKRKCLACIKLGSEDKVLGRLVHCPIETQVLREAEEHQETQCLRVQRAGEDPHSFYFPGQFAPH
With B1, the EC50 in assay [4] is 7 nM; in assay [5], 45 nM.
Take YFPGQFAFS [bioactive 9-mer carboxyl-terminal chemerin peptide (residues 149–157, YFPGQFAFS)]: in assay [6], the EC50 worked out at 26.2 nM.

B2: 125I-chemerin (residues 21–148) (ligand, human, UniProt Q99969 21-148, looked up)
chain: ELTEAQRRGLQVALEEFHKHPPVQWAFQETSVESAVDTPFPAGIFVRLEFKLQQTSCRKRDWKKPECKVRPNGRKRKCLACIKLGSEDKVLGRLVHCPIETQVLREAEEHQETQCLRVQRAGEDPHSF
modifications: 125I (radioiodinated; specific activity 97 Ci/g)
In assay [7], B2 gave a Kd of 1.6 nM.
